Measurements from IntAct's records for PubMed 23039992.

B1: Tumor necrosis factor receptor superfamily member 11B (Mus musculus), O08712 (parent)
chain: MNKWLCCALLVLLDIIEWTTQETLPPKYLHYDPETGHQLLCDKCAPGTYLKQHCTVRRKTLCVPCPDHSYTDSWHTSDECVYCSPVCKELQSVKQECNRTHNRVCECEEGRYLEIEFCLKHRSCPPGSGVVQAGTPERNTVCKKCPDGFFSGETSSKAPCIKHTNCSTFGLLLIQKGNATHDNVCSGNREATQKCGIDVTLCEEAFFRFAVPTKIIPNWLSVLVDSLPGTKVNAESVERIKRRHSSQEQTFQLLKLWKHQNRDQEMVKKIIQDIDLCESSVQRHLGHSNLTTEQLLALMESLPGKKISPEEIERTRKTCKSSEQLLKLLSLWRIKNGDQDTLKGLMYALKHLKTSHFPKTVTHSLRKTMRFLHSFTMYRLYQKLFLEMIGNQVQSVKISCL

Variants of: B1
Settings: with Tnfsf11, O35235-1
Tnfsf11, O35235-1, sequence (O35235 whole entry): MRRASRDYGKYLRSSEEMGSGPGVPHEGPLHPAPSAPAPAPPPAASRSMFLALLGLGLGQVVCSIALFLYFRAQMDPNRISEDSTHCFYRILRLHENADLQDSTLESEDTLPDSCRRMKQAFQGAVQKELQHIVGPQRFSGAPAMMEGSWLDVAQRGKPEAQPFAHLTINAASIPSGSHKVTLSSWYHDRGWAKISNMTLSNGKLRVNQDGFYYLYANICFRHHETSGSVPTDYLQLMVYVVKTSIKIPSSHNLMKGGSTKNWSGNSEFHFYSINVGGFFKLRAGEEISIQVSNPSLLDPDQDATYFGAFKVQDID

Row | Variant | effect of a mutation on the interaction
1 | F117A | increasing interaction strength

Variants of: B1
Settings: with Tnfsf11, O35235-1
Remark: another data set of the same source

Row | Variant | effect of a mutation on the interaction
2 | F117L | increasing interaction strength
